Test results as given in publication PMC3319870 (New Biotechnology, 2011).

Target: Fyn SH3 domain, His6-tagged SUMO fusion (human, UniProt P06241 82-143)
Test: ELISA

Fyn SH3 domain, His6-tagged SUMO fusion, sequence (P06241 82-143): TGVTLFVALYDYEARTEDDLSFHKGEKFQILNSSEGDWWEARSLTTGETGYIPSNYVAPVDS

B1: proline-rich peptide VSLARRPLPPLPGGK (peptide)
peptide: VSLARRPLPPLPGGK
IC50: ~440 nM
